Columns and labels:
[1] = target: human NL1(–A–B)_(ECTO), biotinylated and immobilised for SPR (human); assay: SPR; biotinylated NL_(ECTO)-Avitag variants captured from dialysed conditioned medium on streptavidin CM5 chip (500 RU; 550 RU for the ΔSite series; 1000 RU for NL3 and NL3 Arg451Cys in the R451C series); β-NRX1_(LNS6)(±4), MDGA1_(ECTO), MDGA2_(ECTO) injected, 15 concentrations, two-fold series from 50 μM; TBS-CTB (10 mM Tris pH 7.4, 150 mM NaCl, 3 mM CaCl2, 0.005% Tween-20, 1.0 g/L BSA); equilibrium analysis, 1:1 Langmuir model
[2] = target: human NL1(–A+B)_(ECTO), immobilised for SPR (human); assay: as above
Chain of human NL1(–A+B)_(ECTO), immobilised for SPR (human) (Q8N2Q7 whole entry): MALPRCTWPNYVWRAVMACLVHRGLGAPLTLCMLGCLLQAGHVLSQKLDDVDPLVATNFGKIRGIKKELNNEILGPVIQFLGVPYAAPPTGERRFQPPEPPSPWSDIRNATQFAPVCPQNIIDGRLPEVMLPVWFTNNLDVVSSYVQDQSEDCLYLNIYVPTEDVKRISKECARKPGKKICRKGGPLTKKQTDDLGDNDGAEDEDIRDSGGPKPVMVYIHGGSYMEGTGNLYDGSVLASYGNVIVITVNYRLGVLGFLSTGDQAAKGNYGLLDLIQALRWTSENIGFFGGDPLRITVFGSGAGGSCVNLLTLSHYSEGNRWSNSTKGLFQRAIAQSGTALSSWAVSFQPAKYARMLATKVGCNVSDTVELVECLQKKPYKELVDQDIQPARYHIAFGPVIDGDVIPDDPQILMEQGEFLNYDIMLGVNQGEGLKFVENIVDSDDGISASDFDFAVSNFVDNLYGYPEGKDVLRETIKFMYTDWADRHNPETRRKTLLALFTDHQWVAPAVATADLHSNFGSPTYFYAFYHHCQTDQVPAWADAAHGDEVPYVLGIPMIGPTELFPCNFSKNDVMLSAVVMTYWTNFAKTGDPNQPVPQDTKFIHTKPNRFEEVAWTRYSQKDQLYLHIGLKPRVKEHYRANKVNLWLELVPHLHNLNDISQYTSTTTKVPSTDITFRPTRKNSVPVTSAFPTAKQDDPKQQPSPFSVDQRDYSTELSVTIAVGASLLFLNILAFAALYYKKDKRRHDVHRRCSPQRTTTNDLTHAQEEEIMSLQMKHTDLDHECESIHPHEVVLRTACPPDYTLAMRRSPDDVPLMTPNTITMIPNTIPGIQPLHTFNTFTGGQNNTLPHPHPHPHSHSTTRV

Chain of human NL1(–A–B)_(ECTO), biotinylated and immobilised for SPR (human) (Q8N2Q7 whole entry): as above

| Kd [1] [nM] | fold weaker than with NL1(–A–B) (ECTO) [2] [fold] | Binder |
| --- | --- | --- |
| 2000 | 7 | human MDGA1 extracellular domain (MDGA1_(ECTO); Gln19-Lys925) (domain or fragment) QGVYAPAQAQIVHAGQACVVKEDNISERVYTIREGDTLMLQCLVTGHPRPQVRWTKTAGSASDKFQETSVFNETLRIERIARTQGGRYYCKAENGVGVPAIKSIRVDVQYLDEPMLTVHQTVSDVRGNFYQEKTVFLRCTVNSNPPARFIWKRGSDTLSHSQDNGVDIYEPLYTQGETKVLKLKNLRPQDYASYTCQVSVRNVCGIPDKAITFRLTNTTAPPALKLSVNETLVVNPGENVTVQCLLTGGDPLPQLQWSHGPGPLPLGALAQGGTLSIPSVQARDSGYYNCTATNNVGNPAKKTVNLLVRSMKNATFQITPDVIKESENIQLGQDLKLSCHVDAVPQEKVTYQWFKNGKPARMSKRLLVTRNDPELPAVTSSLELIDLHFSDYGTYLCMASFPGAPVPDLSVEVNISSETVPPTISVPKGRAVVTVREGSPAELQCEVRGKPRPPVLWSRVDKEAALLPSGLPLEETPDGKLRLERVSRDMSGTYRCQTARYNGFNVRPREAQVQLNVQFPPEVEPSSQDVRQALGRPVLLRCSLLRGSPQRIASAVWRFKGQLLPPPPVVPAAAEAPDHAELRLDAVTRDSSGSYECSVSNDVGSAACLFQVSAKAYSPEFYFDTPNPTRSHKLSKNYSYVLQWTQREPDAVDPVLNYRLSIRQLNQHNAVVKAIPVRRVEKGQLLEYILTDLRVPHSYEVRLTPYTTFGAGDMASRIIHYTEPINSPNLSDNTCHFEDEKICGYTQDLTDNFDWTRQNALTQNPKRSPNTGPPTDISGTPEGYYMFIETSRPRELGDRARLVSPLYNASAKFYCVSFFYHMYGKHIGSLNLLVRSRNKGALDTHAWSLSGNKGNVWQQAHVPISPSGPFQIIFEGVRGPGYLGDIAIDDVTLKKGECPRKQTDPNK |
| 1000 | 7 | human MDGA2 extracellular domain (MDGA2_(ECTO); Gln21-Lys927) (domain or fragment) QGVYAPPTVRIVHSGLACNIEEERYSERVYTIREGETLELTCLVTGHPRPQIRWTKTAGSASDRFQDSSVFNETLRITNIQRHQGGRYYCKAENGLGSPAIKSIRVDVYYLDDPVVTVHQSIGEAKEQFYYERTVFLRCVANSNPPVRYSWRRGQEVLLQGSDKGVEIYEPFFTQGETKILKLKNLRPQDYANYSCIASVRNVCNIPDKMVSFRLSNKTASPSIKLLVDDPIVVNPGEAITLVCVTTGGEPAPSLTWVRSFGTLPEKTVLNGGTLTIPAITSDDAGTYSCIANNNVGNPAKKSTNIIVRALKKGRFWITPDPYHKDDNIQIGREVKISCQVEAVPSEELTFSWFKNGRPLRSSERMVITQTDPDVSPGTTNLDIIDLKFTDFGTYTCVASLKGGGISDISIDVNISSSTVPPNLTVPQEKSPLVTREGDTIELQCQVTGKPKPIILWSRADKEVAMPDGSMQMESYDGTLRIVNVSREMSGMYRCQTSQYNGFNVKPREALVQLIVQYPPAVEPAFLEIRQGQDRSVTMSCRVLRAYPIRVLTYEWRLGNKLLRTGQFDSQEYTEYAVKSLSNENYGVYNCSIINEAGAGRCSFLVTGKAYAPEFYYDTYNPVWQNRHRVYSYSLQWTQMNPDAVDRIVAYRLGIRQAGQQRWWEQEIKINGNIQKGELITYNLTELIKPEAYEVRLTPLTKFGEGDSTIRVIKYSAPVNPHLREFHCGFEDGNICLFTQDDTDNFDWTKQSTATRNTKYTPNTGPNADRSGSKEGFYMYIETSRPRLEGEKARLLSPVFSIAPKNPYGPTNTAYCFSFFYHMYGQHIGVLNVYLRLKGQTTIENPLWSSSGNKGQRWNEAHVNIYPITSFQLIFEGIRGPGIEGDIAIDDVSIAEGECAKQDLATK |

— publication PMC5563082
